Data published in patent US7514594B2, “Transgenic animal model of bone mass modulation” (Wyeth, priority 2003, dated 2009).

How the values were obtained:
[1] = tested on: ovariectomized het and ntg mice; test: ovx-induced osteopenia in het and ntg mice treated with 17β-estradiol; type: in vivo, mouse; conditions: both het and ntg; ovariectomized at 9 weeks; 10 μg/kg/day 17β-estradiol for 35 days
Protocol: To determine whether the mutation had any effect on ovx-induced osteopenia, het and ntg mice were ovariectomized at 9 weeks of age and treated for 35 days with vehicle or 10 μg/kg/day 17β-estradiol (E2). The percent change in total, trabecular and cortical density in het and ntg ovx mice from those values in their respective sham operated controls were determined. […] Ovariectomy induced a 14.3% decrease in total BMD (696±6 to 597±7 mg/cm^3) and a 26.3% decrease in trabecular BMD (445±9 to 328±7 mg/cm^3) in the het group and a 14.9% decrease in total BMD (470±10 to 400±7 mg/cm^3) and 37.6% decrease in trabecular BMD (132±4 to 82±2 mg/cm^3) in the ntg group.

[2] = tested on: LRP5-mediated Wnt signaling; test: Dkk-1 repression of LRP5-mediated Wnt signaling; type: cell-based
Description: (§1) 1, 2002, and 60/361,293 filed Mar. 4, 2002. This observation is of particular interest because the HBM mutation in LRP5 is a gain of function or activation mutation. That is, Wnt signaling, via the canonical pathway, is enhanced with HBM versus LRP5. Not wishing to be bound by theory, it is believed that this interaction provides an explanation of the developmental signaling differences between HBM and the more common LRP5/LRP6.

LRP5 = LRP5 (Homo sapiens, UniProt O75197); test: Dkk-1 binding to LRP5; conditions: observed by the inventors
Description: 1, 2002, and 60/361,293 filed Mar. 4, 2002. The two-hybrid screen is a common procedure in the art, which is described, for example, by Gietz et al., Mol. Cell. Biochem. 172:67-79 (1997); Young, Biol. Reprod. 58:302-11 (1998); Brent and Finley, Ann. Rev. Genet. 31:663-704 (1997); and Lu and Hannon, eds., Yeast Hybrid Technologies, Eaton Publishing, Natick Mass., (2000).
(§2) It may be that the reduced effectiveness of Dkk inhibition of LRP5 which is observed for HBM is not necessarily mediated by enhancing or preventing the binding of Dkk to LRP5/LRP6/HBM. More than one mechanism may be involved. […] Further, it has been observed that different members of the Dkk family differentially affect LRP5/LRP6/HBM activity. Rather, the more preferred approach is to develop a drug or therapy which results in the desired protective benefits by reproducing as nearly as possible the subtle effect of HBM. The ability to refine and test potential drugs and therapies by comparing their effects to an animal model of HBM is among the major features of the present invention.

LRP6 [3] = target: T1, LRP6 (Homo sapiens, UniProt O75581); test: Dkk-1 binding to LRP6; conditions: observed by the inventors
Description: as §2

canonical Wnt signaling = conditions: cited from earlier work
[4] = tested on: HBM-mediated Wnt signaling; test: Dkk-1 repression of HBM-mediated Wnt signaling; type: cell-based; conditions: compared with LRP5-mediated signaling
Description: as §1

HBM = HBM (Homo sapiens, UniProt O75197, G171V); test: Dkk-1 binding to HBM; conditions: observed by the inventors
Description: as §2

Wnt pathway = test: Xenopus embryo assay of Wnt pathway stimulation; type: in vivo; conditions: for stimulation of the Wnt pathway: in combination with Wnt5a
Description: Axin was also identified from the two hybrid experiments. This protein is involved in inhibition of the Wnt signaling pathway and interacts with the tumor suppressor APC. There is a link here with the focal adhesion signaling described above: one common step in the two pathways involves inhibition of glycogen synthase kinase 3, which in turn results in the activation of β-catenin/Lef-1 and AP-1 transcription factors. Axin/APC are involved in this as well as integrin linked kinase. The Wnt pathway has a role in determining cell fates during embryogenesis. If inappropriately activated, the Wnt pathway may also lead to cancer. The Wnt pathway also seems to have a role in cytoskeletal rearrangements. […] A model depicting LRP5 involvement in focal adhesion signaling is depicted in FIG. 15.

[5] = tested on: LRP5 G171V transgenic (het) and non-transgenic littermate (ntg) mice; test: hPTH treatment of LRP5 G171V transgenic and non-transgenic mice, femoral density by pQCT; type: in vivo, mouse; conditions: for Percent Change in Bone Mass Density After 30 Days of hPTH Treatment, cortical, ntg / Percent Change in Bone Mass Density After 30 Days of hPTH Treatment, cortical, transgenic / Percent Change in Bone Mass Density After 30 Days of hPTH Treatment, total, ntg / Percent Change in Bone Mass Density After 30 Days of hPTH Treatment, total, transgenic / Percent Change in Bone Mass Density After 30 Days of hPTH Treatment, trabecular, ntg / Percent Change in Bone Mass Density After 30 Days of hPTH Treatment, trabecular, transgenic: left femur pQCT, vs vehicle controls
Protocol: In order to further examine increases in bone density that were detected in select transgenic lines through monitoring of the animals by non-invasive bone imaging, necropsies were performed on animals of these lines at 5 and 9 weeks of age for direct bone densitometric and histologic analysis. The left femur was isolated, cleaned and positioned in an XCT Research peripheral Quantitative Computed Tomograph (pQCT; Stradtec Medizintechnik, Pforzheim, Germany). The distal end of the femur was located and pQCT scanning was initiated 2.5 mm proximal from this point for total and trabecular measurements. The pQCT scan for cortical measurements was initiated 3.5 mm proximal from the first scan (i.e., 6 mm proximal from the distal end). […] The soft tissue was automatically removed using an iterative algorithm, and the density of the remaining bone (total density) in the first slice was determined. The outer 55% of the bone was then peeled away in a concentric spiral and the density of the remaining bone (trabecular density) of the first slice was reported in mg/cm^3. In the second slice, the boundary between cortical and trabecular bone was determined using an iterative algorithm, and the density of the cortical bone was determined.
[…] Total, trabecular and cortical densities were measured in excised left femur by pQCT. PTH response was normalized to the bone densities of the vehicle group and expressed as percent change from their respective vehicle controls.

LRP6 [6] = target: T1, LRP6; conditions: Mao et al.; cited from earlier work
LRP6 [7] = target: T1, LRP6; conditions: Semenov et al.; cited from earlier work
[8] = extracellular domains, absence of Wnt5a
[9] = ntg animals, treatment with PTH

T1 sequence (O75581 20-1613, species assumed): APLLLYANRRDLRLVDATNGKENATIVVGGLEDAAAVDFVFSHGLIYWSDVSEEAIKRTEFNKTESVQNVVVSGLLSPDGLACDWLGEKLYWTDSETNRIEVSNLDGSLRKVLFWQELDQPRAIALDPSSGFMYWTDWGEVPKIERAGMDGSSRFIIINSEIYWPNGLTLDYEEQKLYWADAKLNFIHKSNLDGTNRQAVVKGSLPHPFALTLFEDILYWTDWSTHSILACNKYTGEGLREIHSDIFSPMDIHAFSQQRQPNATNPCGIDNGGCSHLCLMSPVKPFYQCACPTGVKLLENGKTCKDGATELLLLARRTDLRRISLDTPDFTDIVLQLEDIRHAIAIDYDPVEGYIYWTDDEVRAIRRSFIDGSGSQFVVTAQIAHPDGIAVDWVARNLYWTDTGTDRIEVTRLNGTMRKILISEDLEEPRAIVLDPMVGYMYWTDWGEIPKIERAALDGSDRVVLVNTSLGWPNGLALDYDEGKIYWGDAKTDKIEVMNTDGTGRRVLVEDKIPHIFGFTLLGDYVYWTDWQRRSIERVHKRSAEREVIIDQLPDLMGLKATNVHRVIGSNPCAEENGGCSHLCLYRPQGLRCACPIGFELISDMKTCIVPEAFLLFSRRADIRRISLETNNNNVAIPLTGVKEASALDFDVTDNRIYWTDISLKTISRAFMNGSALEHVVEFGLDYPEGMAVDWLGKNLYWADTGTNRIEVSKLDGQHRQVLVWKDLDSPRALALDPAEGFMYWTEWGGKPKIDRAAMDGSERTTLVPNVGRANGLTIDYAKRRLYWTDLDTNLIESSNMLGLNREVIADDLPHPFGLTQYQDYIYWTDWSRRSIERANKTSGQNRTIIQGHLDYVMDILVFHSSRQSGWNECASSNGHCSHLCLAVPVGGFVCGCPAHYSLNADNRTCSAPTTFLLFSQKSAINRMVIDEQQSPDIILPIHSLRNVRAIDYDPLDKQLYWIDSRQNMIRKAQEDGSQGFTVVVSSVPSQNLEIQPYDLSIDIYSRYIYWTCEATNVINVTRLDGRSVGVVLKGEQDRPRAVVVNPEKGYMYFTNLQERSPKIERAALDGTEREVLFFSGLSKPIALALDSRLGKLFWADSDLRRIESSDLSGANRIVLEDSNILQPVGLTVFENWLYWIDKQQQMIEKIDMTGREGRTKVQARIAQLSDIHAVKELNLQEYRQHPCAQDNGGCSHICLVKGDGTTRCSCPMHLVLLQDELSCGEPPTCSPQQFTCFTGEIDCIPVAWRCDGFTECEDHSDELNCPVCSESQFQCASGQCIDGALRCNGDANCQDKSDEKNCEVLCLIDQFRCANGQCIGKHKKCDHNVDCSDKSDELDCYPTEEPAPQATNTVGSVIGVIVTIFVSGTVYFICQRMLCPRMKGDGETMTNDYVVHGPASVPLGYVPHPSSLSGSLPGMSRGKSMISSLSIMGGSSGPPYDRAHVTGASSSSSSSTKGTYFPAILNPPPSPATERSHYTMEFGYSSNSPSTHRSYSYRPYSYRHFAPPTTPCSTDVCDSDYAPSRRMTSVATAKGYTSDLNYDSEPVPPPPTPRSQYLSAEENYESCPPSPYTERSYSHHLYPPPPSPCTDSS
HBM, sequence (O75197 32-1615 G171V): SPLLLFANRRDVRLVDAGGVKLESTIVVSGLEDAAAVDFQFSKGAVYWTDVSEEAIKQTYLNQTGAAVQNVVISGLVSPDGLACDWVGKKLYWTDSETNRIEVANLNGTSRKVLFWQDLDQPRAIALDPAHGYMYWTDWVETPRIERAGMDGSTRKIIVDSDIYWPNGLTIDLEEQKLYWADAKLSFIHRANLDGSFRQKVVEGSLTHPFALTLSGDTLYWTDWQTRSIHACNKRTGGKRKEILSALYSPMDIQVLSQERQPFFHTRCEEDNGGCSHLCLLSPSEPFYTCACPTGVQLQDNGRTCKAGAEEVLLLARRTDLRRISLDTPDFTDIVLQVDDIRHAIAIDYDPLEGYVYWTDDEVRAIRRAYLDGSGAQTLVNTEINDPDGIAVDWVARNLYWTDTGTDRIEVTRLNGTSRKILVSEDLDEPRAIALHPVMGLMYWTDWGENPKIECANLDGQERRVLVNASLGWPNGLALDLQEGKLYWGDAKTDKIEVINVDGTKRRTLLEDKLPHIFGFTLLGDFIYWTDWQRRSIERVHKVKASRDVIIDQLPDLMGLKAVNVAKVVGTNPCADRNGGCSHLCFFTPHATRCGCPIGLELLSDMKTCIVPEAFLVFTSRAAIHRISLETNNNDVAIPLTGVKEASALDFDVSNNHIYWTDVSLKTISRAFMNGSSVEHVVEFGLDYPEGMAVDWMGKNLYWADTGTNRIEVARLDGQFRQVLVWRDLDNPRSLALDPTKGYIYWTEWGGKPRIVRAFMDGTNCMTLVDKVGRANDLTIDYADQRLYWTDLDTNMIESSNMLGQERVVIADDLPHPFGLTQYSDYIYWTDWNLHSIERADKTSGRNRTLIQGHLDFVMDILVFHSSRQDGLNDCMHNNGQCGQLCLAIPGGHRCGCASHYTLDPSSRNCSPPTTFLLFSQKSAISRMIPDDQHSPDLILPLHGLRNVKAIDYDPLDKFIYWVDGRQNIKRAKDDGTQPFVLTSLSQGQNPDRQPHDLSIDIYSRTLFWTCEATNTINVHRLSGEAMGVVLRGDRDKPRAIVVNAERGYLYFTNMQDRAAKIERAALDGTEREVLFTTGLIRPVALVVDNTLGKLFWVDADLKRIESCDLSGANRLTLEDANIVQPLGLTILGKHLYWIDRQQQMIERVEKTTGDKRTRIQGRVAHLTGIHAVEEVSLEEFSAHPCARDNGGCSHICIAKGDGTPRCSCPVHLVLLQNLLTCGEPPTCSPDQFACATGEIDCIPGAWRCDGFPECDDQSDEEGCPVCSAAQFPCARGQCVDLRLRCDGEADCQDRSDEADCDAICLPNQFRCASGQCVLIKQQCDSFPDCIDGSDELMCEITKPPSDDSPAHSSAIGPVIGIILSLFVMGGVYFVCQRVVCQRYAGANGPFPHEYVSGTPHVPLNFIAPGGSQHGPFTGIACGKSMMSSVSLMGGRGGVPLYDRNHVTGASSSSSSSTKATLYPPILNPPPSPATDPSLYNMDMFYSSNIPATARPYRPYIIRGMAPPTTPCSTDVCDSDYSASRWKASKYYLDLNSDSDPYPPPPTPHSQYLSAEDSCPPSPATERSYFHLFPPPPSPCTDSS
LRP5, sequence (O75197 32-1615): as the sequence (O75197 32-1615 G171V) above, with V140G counted along it

In the case of `C[C@]12CC[C@@H]3c4ccc(O)cc4CC[C@H]3[C@@H]1CC[C@@H]2O` [E2, 17β-estradiol], the ovx-induced bone loss [1] is reported as “completely prevented”.

For “Dkk-1: protein dickkopf-1, an antagonist of the Wnt pathway”, the “repression of LRP5-mediated Wnt signaling” value [2] was “able to repress”, the “binding to LRP5” value (LRP5) was “binds” and the “binding to LRP6” value (LRP6 [3]) was “binds”. The “canonical Wnt signaling” value (canonical Wnt signaling; Bafico et al., Dkk-1 added at extremely low concentrations (30 pM)) was “repression”, the “repression of HBM-mediated Wnt signaling” value [4] was “less effective” and the “binding to HBM” value (HBM) was “binds”.

For “HBM: protein identical to LRP5 except for an alteration of glycine 171 to valine”, the “stimulation of the Wnt pathway” value (Wnt pathway) was “much greater extent”.

For “LRP5 ECD: extracellular domain (ECD) of LRP5”, the “stimulation of Wnt signaling” value (Wnt pathway; [8]) was “modest stimulation”.

With “LRP5: wild-type LRP5 protein (SEQ ID NO: 3)” the “stimulation of the Wnt pathway” value (Wnt pathway) was “modestly above the control”.

B1: human parathyroid hormone (peptide, UniProt P01270 32-115, looked up)
Parathyroid hormone: SVSEIQLMHNLGKHLNSMERVEWLRKKLQDVHNFVALGAPLAPRDAGSQRPRKKEDNVLVESHEKSLGEADKADVNVLTKAKSQ
modifications: Parathyroid hormone
notes: human parathyroid hormone (hPTH), anabolic agent
For B1, the “Percent Change in Bone Mass Density After 30 Days of hPTH Treatment, cortical, ntg” value ([5]; Female) was 4%, the “Percent Change in Bone Mass Density After 30 Days of hPTH Treatment, cortical, transgenic” value ([5]; Female) was −1% and the “Percent Change in Bone Mass Density After 30 Days of hPTH Treatment, total, ntg” value ([5]; Female) was 18%. For the same molecule, the “Percent Change in Bone Mass Density After 30 Days of hPTH Treatment, total, transgenic” value ([5]; Female) was 30%, the “Percent Change in Bone Mass Density After 30 Days of hPTH Treatment, trabecular, ntg” value ([5]; Female) was −3% and the “Percent Change in Bone Mass Density After 30 Days of hPTH Treatment, trabecular, transgenic” value ([5]; Female) was 59%. For the same molecule, the “Percent Change in Bone Mass Density After 30 Days of hPTH Treatment, cortical, ntg” value ([5]; Male, hPTH 100 mg/kg/day sc) was 3%, the “Percent Change in Bone Mass Density After 30 Days of hPTH Treatment, cortical, transgenic” value ([5]; Male, hPTH 100 mg/kg/day sc) was 2% and the “Percent Change in Bone Mass Density After 30 Days of hPTH Treatment, total, ntg” value ([5]; Male, hPTH 100 mg/kg/day sc) was 23%. For the same molecule, the “Percent Change in Bone Mass Density After 30 Days of hPTH Treatment, total, transgenic” value ([5]; Male, hPTH 100 mg/kg/day sc) was 37%, the “Percent Change in Bone Mass Density After 30 Days of hPTH Treatment, trabecular, ntg” value ([5]; Male, hPTH 100 mg/kg/day sc) was 5% and the “Percent Change in Bone Mass Density After 30 Days of hPTH Treatment, trabecular, transgenic” value ([5]; Male, hPTH 100 mg/kg/day sc) was 80%. The “total femoral BMD” value ([5]; both het and ntg, treatment with PTH) was “significant increase”, the trabecular bone compartment ([5]; het animals, treatment with PTH) was “increase” and the cortical bone [5, 9] was “significant increase”. For the same molecule, the “trabecular BMD” value [5, 9] was “no changes”.

B2: Dkk-2: Dkk family protein found to directly bind LRP6 (protein, UniProt Q9UBU2 34-259, looked up)
Dickkopf-related protein 2: KLNSIKSSLGGETPGQAANRSAGMYQGLAFGGSKKGKNLGQAYPCSSDKECEVGRYCHSPHQGSSACMVCRRKKKRCHRDGMCCPSTRCNNGICIPVTESILTPHIPALDGTRHRDRNHGHYSNHDLGWQNLGRPHTKMSHIKGHEGDPCLRSSDCIEGFCCARHFWTKICKPVLHQGEVCTKQRKKGSHGLEIFQRCDCAKGLSCKVWKDATYSSKARLHVCQKI
In the case of B2, the Kd (LRP6 [6]) is given as 0.73 nM.

B3: Dkk-1 mutant having cysteine 220 changed to alanine: Dkk-1 mutant having cysteine 220 changed to alanine (protein, UniProt O94907 32-266, looked up, variant C220A)
Dickkopf-related protein 1: TLNSVLNSNAIKNLPPPLGGAAGHPGSAVSAAPGILYPGGNKYQTIDNYQPYPCAEDEECGTDEYCASPTRGGDAGVQICLACRKRRKRCMRHAMCCPGNYCKNGICVSSDQNHFRGEIEETITESFGNDHSTLDGYSRRTTLSSKMYHTKGQEGSVCLRSSDCASGLCCARHFWSKICKPVLKEGQVATKHRRKGSHGLEIFQRCYCGEGLSCRIQKDHHQASNSSRLHTCQRH
For B3, the LRP6 binding (LRP6 [7]) is given as “abolished” and the “repression of Wnt signaling” value (canonical Wnt signaling; Semenov et al.) is given as “unable to repress”.

B4: HBM ECD: extracellular domain (ECD) of HBM (protein, UniProt O75197 32-1384, looked up, variant G171V)
extracellular domain: SPLLLFANRRDVRLVDAGGVKLESTIVVSGLEDAAAVDFQFSKGAVYWTDVSEEAIKQTYLNQTGAAVQNVVISGLVSPDGLACDWVGKKLYWTDSETNRIEVANLNGTSRKVLFWQDLDQPRAIALDPAHGYMYWTDWVETPRIERAGMDGSTRKIIVDSDIYWPNGLTIDLEEQKLYWADAKLSFIHRANLDGSFRQKVVEGSLTHPFALTLSGDTLYWTDWQTRSIHACNKRTGGKRKEILSALYSPMDIQVLSQERQPFFHTRCEEDNGGCSHLCLLSPSEPFYTCACPTGVQLQDNGRTCKAGAEEVLLLARRTDLRRISLDTPDFTDIVLQVDDIRHAIAIDYDPLEGYVYWTDDEVRAIRRAYLDGSGAQTLVNTEINDPDGIAVDWVARNLYWTDTGTDRIEVTRLNGTSRKILVSEDLDEPRAIALHPVMGLMYWTDWGENPKIECANLDGQERRVLVNASLGWPNGLALDLQEGKLYWGDAKTDKIEVINVDGTKRRTLLEDKLPHIFGFTLLGDFIYWTDWQRRSIERVHKVKASRDVIIDQLPDLMGLKAVNVAKVVGTNPCADRNGGCSHLCFFTPHATRCGCPIGLELLSDMKTCIVPEAFLVFTSRAAIHRISLETNNNDVAIPLTGVKEASALDFDVSNNHIYWTDVSLKTISRAFMNGSSVEHVVEFGLDYPEGMAVDWMGKNLYWADTGTNRIEVARLDGQFRQVLVWRDLDNPRSLALDPTKGYIYWTEWGGKPRIVRAFMDGTNCMTLVDKVGRANDLTIDYADQRLYWTDLDTNMIESSNMLGQERVVIADDLPHPFGLTQYSDYIYWTDWNLHSIERADKTSGRNRTLIQGHLDFVMDILVFHSSRQDGLNDCMHNNGQCGQLCLAIPGGHRCGCASHYTLDPSSRNCSPPTTFLLFSQKSAISRMIPDDQHSPDLILPLHGLRNVKAIDYDPLDKFIYWVDGRQNIKRAKDDGTQPFVLTSLSQGQNPDRQPHDLSIDIYSRTLFWTCEATNTINVHRLSGEAMGVVLRGDRDKPRAIVVNAERGYLYFTNMQDRAAKIERAALDGTEREVLFTTGLIRPVALVVDNTLGKLFWVDADLKRIESCDLSGANRLTLEDANIVQPLGLTILGKHLYWIDRQQQMIERVEKTTGDKRTRIQGRVAHLTGIHAVEEVSLEEFSAHPCARDNGGCSHICIAKGDGTPRCSCPVHLVLLQNLLTCGEPPTCSPDQFACATGEIDCIPGAWRCDGFPECDDQSDEEGCPVCSAAQFPCARGQCVDLRLRCDGEADCQDRSDEADCDAICLPNQFRCASGQCVLIKQQCDSFPDCIDGSDELMCEITKPPSDDSPAHS
modifications: extracellular domain
For B4, the “stimulation of Wnt signaling” value (Wnt pathway; extracellular domain, presence of Wnt5a) was “slightly increased” and the “stimulation of Wnt signaling” value (Wnt pathway; [8]) was “modest stimulation”.
